Assay results: US20200095278A1 (USTAV ORGANICKE CHEMIE A BIOCHEMIE AV CR V V I, published 2020)
No end group written: not given here.

T1: E. coli rhomboid protease GlpG (E. coli, UniProt P09391 1-276, limits assumed)
T1 sequence (looked up): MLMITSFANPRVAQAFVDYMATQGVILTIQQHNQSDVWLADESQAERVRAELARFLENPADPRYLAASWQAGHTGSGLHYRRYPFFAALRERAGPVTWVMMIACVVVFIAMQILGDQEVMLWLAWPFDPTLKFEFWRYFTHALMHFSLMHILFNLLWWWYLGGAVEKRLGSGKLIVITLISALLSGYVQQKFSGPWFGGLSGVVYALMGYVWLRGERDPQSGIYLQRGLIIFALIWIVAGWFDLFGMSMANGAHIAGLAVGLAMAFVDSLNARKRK


Columns and labels:
[1] = molecular target: T1, E. coli rhomboid protease GlpG; assay: cell-based or functional assay
[2] = molecular target: T1, E. coli rhomboid protease GlpG; assay: in vitro inhibition of rhomboid protease GlpG, as described (Ticha et al., 2017); printed as a Ki range

| Binder | IC50 (µM), measured in vitro as described (Ticha et al., 2017) [1] [µM] | Ki [2] [nM] |
| --- | --- | --- |
| Ac-RVRHA-{keto‑C(:O)NH-isopropyl} [Compound 2] | 12.4 | – |
| Ac-RVRHA-{keto‑C(:O)NH2} [Compound 1] | 203 | – |
| Ac-RVWHA-{keto‑C(:O)NH-4‑phenylbutyl} [Compound 16] | 0.77 | – |
| Ac-RVRHA (also: C-terminal Ala as alpha-ketoamide, -CO-CO-NH-(CH2)4-Ph, Structure is printed only as a drawing; Tail inferred from C39H62N14O7, MW 839.02; also called Cpd No. 11) [Compound 11] | 0.15 | 10 to 100 |
| Ac-RVRHA (not fully specified (C-terminus)) [Compound 3] | 5.01 | – |
| Ac-RVRHA-{keto‑C(:O)NH-1‑phenylethyl} [Compound 5] | 13.8 | – |
| Ac-RVRHA-{keto‑C(:O)NH-pentyl} [Compound 8] | 1.08 | – |
| Ac-RVRHA (also: C-terminal Ala as alpha-ketoamide, -CO-CO-NH-CH2-(2,5-dimethylphenyl), Structure is printed only as a drawing; Tail inferred from C38H60N14O7, MW 824.99; also called Cpd No. 10) [Compound 10] | 0.18 | 10 to 100 |
| Ac-RVRHA-{keto‑C(:O)NH-benzyl} [Compound 4] | 7.64 | – |
| Ac-RVRHA-{keto‑C(:O)NH-neopentyl} [Compound 7] | 2.15 | – |
| Ac-RVRHA (also: C-terminal Ala as alpha-ketoamide, -CO-CO-NH-(CH2)2-Ph, Structure is printed only as a drawing; Tail inferred from monoisotopic mass 810.461290, MW 810.96, and the NMR; It has the same mass as compound 5; also called Cpd No. 9) [Compound 9] | 0.34 | 10 to 100 |
| Ac-RVRHA-{keto‑C(:O)NH-ethoxycarbonylmethyl} [Compound 6] | 4.24 | – |
| Ac-Arg-His-Ala (not fully specified (C-terminus)) [Compound 13] | 9.05 | – |
| Ac-His-Ala (not fully specified (C-terminus)) [Compound 14] | 48 | – |
